The subject of data set [1] is C=CC[S+](CCC(N)C(=O)O)C[C@H]1O[C@@H](n2cnc3c(N)ncnc32)C(O)[C@H]1O. Description: Enzymatic parameters of GlaTgs2-WT with respect to AdoPropen (HPLC-coupled activity assay). Conditions: other: with respect to AdoPropen, pH 8.4, 37.0 °C. Type of data set: biochemical, Giardia lamblia. The method, then:
(§1) The transfer of the propenyl (AdoPropen), pentenynyl (AdoEnYn) and benzyl (AdoBenzyl) residues carried by the synthetically produced AdoMet analogues onto the N2 atom of the guanosine of m^7GpppA (A=adenine) enzymatically catalysed by the WT-GlaTgs2 (SEQ ID NO: 1) and the proteins of the invention in accordance with SEQ ID NOs: 4-10 was investigated with the aid of a HPLC-coupled activity assay.
(§2) Reaction buffer 2: 50 mM Tris; 10 mM MgCl2; 100 mM NH4OAc; pH 8.4
(§3) MTAN stands for 5′-methylthioadenosine/S-adenosylhomocysteine nucleosidase. LuxS stands for S-ribosylhomocysteine lyase.
(§4) The quantities were adjusted in proportion for larger samples of 10 or 20 μL. The quantity of AdoMet analogue used was matched such that the area of the peak in the chromatogram for a diastereoisomer of the AdoMet analogue corresponded to the area of the signal caused by m^7GpppA. The reaction was in general stopped directly after starting the reaction (t0) and after three hours at 37° C. (t180) and examined using analytical HPLC as well as MALDI-TOF.

In data set [2] the target is T1, Giardia lamblia trimethylguanosine synthase 2 (GlaTgs2) variant GlaTgs2-V34A (V34A), SEQ ID NO: 4 (Giardia duodenalis, UniProt A8BW33, V34A).
T1 construct: HPLC-coupled cap N2 methyl/alkyl transfer assay with m7GpppA, helper enzymes MTAN and LuxS
Put plainly: Enzymatic parameters of GlaTgs2-V34A with respect to AdoPropen and AdoMet (HPLC-coupled activity assay). The class given is biochemical. The method, then: as §1, §2, §3, §4

Data set [3] can be described thus: Thermostability (T50, 15 min incubation, residual activity, Boltzmann fit). The class given is physicochemical. Conditions: for T50 (thermostability): 15 minutes incubation, Table 4; for T50 (15 min): temperature at which enzyme loses 50% of its activity after 15 minutes incubation, Table 3. The method, then: The stability of a protein characterizes its ability to tolerate denaturing influences, such as an increase in the environmental temperature, within certain limits and to maintain the native conformation. The T50 value can be used as a measure of the thermostability.
is the temperature at which an enzyme loses 50% of its activity after 15 minutes incubation. In order to determine the T50 value, the protein to be analysed is heated for 15 minutes to different temperatures in a thermocycler while a sample of the protein is incubated on ice. Next, activity tests are carried out with the previously heated proteins. […] After normalizing the values,
can be obtained using a Boltzmann fit and “Origin” software.

The next data set deals with m^7GpppA. Put plainly: HPLC-coupled activity assay: enzymatic transfer of the residue of an AdoMet analogue onto N2 of the guanosine of m^7GpppA. The class given is biochemical. Conditions: for m^7GpppA transformed: same quantity of enzyme; for TTN: Total Turnover Number. The method, then:
as §1, §2, §3, §4

[4] abbreviates: with respect to AdoPropen, Table 3.

Broadly, the kcat is the maximal rate divided by the concentration of active sites. For the molecule “Giardia lamblia trimethylguanosine synthase 2 (GlaTgs2-WT), wild type, SEQ ID NO: 1 (Giardia lamblia ATCC 50803)”, in data set [1], the Km is given as 151 ± 19 μM μM and the catalytic constant (kcat) is 0.0015 ± 0.0013 s⁻¹.
As for `C=CC[S+](CCC(N)C(=O)O)C[C@H]1O[C@@H](n2cnc3c(N)ncnc32)C(O)C1O` (stereo in doubt) [AdoPropen, 5′-[(S)-[(3S)-3-amino-3-carboxypropyl]prop-2-enylsulphonio]-5′-deoxyadenosine], the “affinity for AdoPropen” value in data set [2] (compared with the wild type enzyme GlaTgs2-WT) is listed as “higher affinity”. Moreover, the kcat in data set [2] (with respect to AdoPropen, GlaTgs2-V34A) amounted to 0.003 ± 0.0013 s⁻¹.

B1: GlaTgs2-V34A: GlaTgs2 variant, valine at position 34 replaced by alanine, SEQ ID NO: 4 (protein, listed as Giardia lamblia)
chain: MSTWLLDSKCVERMKWLFSDLPEEKRVMIKMNEAAFFSVTPAVYADEVARMMRTVLALLGKPPYAVIDGTACVGGDTRLLAKHFDMTVAIERDPETYALLQDNLTTWGVDAKTISGDTAALIPQFWTLIGAVATFSLYLDPPWGGVDYRSQTDIQLTLGSLAVEDVVNRAFEAHLSMKLAVLKLPRNYNCGYLFRKLGKHEVFRITQGNFFVFFVARRGSRVKEHGRTAMLQLRKAREEAKARSEETKEDGETRGSGE
In the case of B1, the “T50 (thermostability)” value in data set [3] stood at 40.4 ± 0.2. In data set [3], the “T50 (15 min)” value is 40.4 ± 0.2 °C. Further, the transfer of benzyl result in the data set on m^7GpppA (AdoBenzyl as AdoMet analogue) is “a transfer of benzyl was observed”. For the same molecule, the “m^7GpppA transformed” value with m^7GpppA (AdoEnYn) amounted to 10%; in the data set with m^7GpppA (AdoPropen) it was 95%. The TTN was found to be 10 ± 2 in the data set with m^7GpppA (AdoPropen, Table 2) and 10 in the data set with m^7GpppA (setting [4]).

B2: GlaTgs2-V34A, D76V: GlaTgs2 variant with exchanges V34A and D76V, SEQ ID NO: 9 (protein, listed as Giardia lamblia)
chain: MSTWLLDSKCVERMKWLFSDLPEEKRVMIKMNEAAFFSVTPAVYADEVARMMRTVLALLGKPPYAVIDGTACVGGVTRLLAKHFDMTVAIERDPETYALLQDNLTTWGVDAKTISGDTAALIPQFWTLIGAVATFSLYLDPPWGGVDYRSQTDIQLTLGSLAVEDVVNRAFEAHLSMKLAVLKLPRNYNCGYLFRKLGKHEVFRITQGNFFVFFVARRGSRVKEHGRTAMLQLRKAREEAKARSEETKEDGETRGSGE
With B2, the TTN in the data set on m^7GpppA (AdoPropen, Table 2) amounted to 1.

B3: GlaTgs2-V34M: GlaTgs2 variant, valine at position 34 replaced by methionine, SEQ ID NO: 6 (protein, listed as Giardia lamblia)
chain: MSTWLLDSKCVERMKWLFSDLPEEKRVMIKMNEMAFFSVTPAVYADEVARMMRTVLALLGKPPYAVIDGTACVGGDTRLLAKHFDMTVAIERDPETYALLQDNLTTWGVDAKTISGDTAALIPQFWTLIGAVATFSLYLDPPWGGVDYRSQTDIQLTLGSLAVEDVVNRAFEAHLSMKLAVLKLPRNYNCGYLFRKLGKHEVFRITQGNFFVFFVARRGSRVKEHGRTAMLQLRKAREEAKARSEETKEDGETRGSGE
As for B3, in data set [3], the “T50 (thermostability)” value is 49.0. Also, in the data set on m^7GpppA (AdoPropen, Table 2), the TTN is on record as 6.

B4: GlaTgs2-V34A, D76T: GlaTgs2 variant with exchanges V34A and D76T, SEQ ID NO: 8 (protein, listed as Giardia lamblia)
chain: MSTWLLDSKCVERMKWLFSDLPEEKRVMIKMNEAAFFSVTPAVYADEVARMMRTVLALLGKPPYAVIDGTACVGGLTRLLAKHFDMTVAIERDPETYALLQDNLTTWGVDAKTISGDTAALIPQFWTLIGAVATFSLYLDPPWGGVDYRSQTDIQLTLGSLAVEDVVNRAFEAHLSMKLAVLKLPRNYNCGYLFRKLGKHEVFRITQGNFFVFFVARRGSRVKEHGRTAMLQLRKAREEAKARSEETKEDGETRGSGE
B4 registered a TTN in the data set on m^7GpppA (AdoPropen, Table 2) of 2.

B5: GlaTgs2-V34G: GlaTgs2 variant, valine at position 34 replaced by glycine, SEQ ID NO: 5 (protein, listed as Giardia lamblia)
chain: MSTWLLDSKCVERMKWLFSDLPEEKRVMIKMNEGAFFSVTPAVYADEVARMMRTVLALLGKPPYAVIDGTACVGGDTRLLAKHFDMTVAIERDPETYALLQDNLTTWGVDAKTISGDTAALIPQFWTLIGAVATFSLYLDPPWGGVDYRSQTDIQLTLGSLAVEDVVNRAFEAHLSMKLAVLKLPRNYNCGYLFRKLGKHEVFRITQGNFFVFFVARRGSRVKEHGRTAMLQLRKAREEAKARSEETKEDGETRGSGE
For B5, the “T50 (thermostability)” value in data set [3] is 44.8. The same molecule gave a TTN in the data set with m^7GpppA (AdoPropen, Table 2) of 5.

B6: GlaTgs2-V34A, R92A: GlaTgs2 variant with exchanges V34A and R92A, SEQ ID NO: 10 (protein, listed as Giardia lamblia)
chain: MSTWLLDSKCVERMKWLFSDLPEEKRVMIKMNEAAFFSVTPAVYADEVARMMRTVLALLGKPPYAVIDGTACVGGDTRLLAKHFDMTVAIEADPETYALLQDNLTTWGVDAKTISGDTAALIPQFWTLIGAVATFSLYLDPPWGGVDYRSQTDIQLTLGSLAVEDVVNRAFEAHLSMKLAVLKLPRNYNCGYLFRKLGKHEVFRITQGNFFVFFVARRGSRVKEHGRTAMLQLRKAREEAKARSEETKEDGETRGSGE
In turn, B6 returned a TTN in the data set with m^7GpppA (AdoPropen, Table 2) of 8.

B7: GlaTgs2-V34A, D76L: GlaTgs2 variant with exchanges V34A and D76L, SEQ ID NO: 7 (protein, listed as Giardia lamblia)
chain: MSTWLLDSKCVERMKWLFSDLPEEKRVMIKMNEAAFFSVTPAVYADEVARMMRTVLALLGKPPYAVIDGTACVGGTTRLLAKHFDMTVAIERDPETYALLQDNLTTWGVDAKTISGDTAALIPQFWTLIGAVATFSLYLDPPWGGVDYRSQTDIQLTLGSLAVEDVVNRAFEAHLSMKLAVLKLPRNYNCGYLFRKLGKHEVFRITQGNFFVFFVARRGSRVKEHGRTAMLQLRKAREEAKARSEETKEDGETRGSGE
The molecule B7 displayed a TTN with m^7GpppA (AdoPropen, Table 2) of 1.

B8: GlaTgs2-WT: wild type trimethylguanosine synthase 2 from Giardia lamblia, 258 amino acids, SEQ ID NO: 1 (protein, listed as Giardia lamblia)
chain: MSTWLLDSKCVERMKWLFSDLPEEKRVMIKMNEVAFFSVTPAVYADEVARMMRTVLALLGKPPYAVIDGTACVGGDTRLLAKHFDMTVAIERDPETYALLQDNLTTWGVDAKTISGDTAALIPQFWTLIGAVATFSLYLDPPWGGVDYRSQTDIQLTLGSLAVEDVVNRAFEAHLSMKLAVLKLPRNYNCGYLFRKLGKHEVFRITQGNFFVFFVARRGSRVKEHGRTAMLQLRKAREEAKARSEETKEDGETRGSGE
As for B8, in data set [3], the “T50 (thermostability)” value came out at 39.9 ± 0.2. For the same molecule, the “T50 (15 min)” value in data set [3] amounted to 39.9 ± 0.2 °C. In addition, the TTN with m^7GpppA (AdoPropen, Table 2) was 3 ± 2; in the data set on m^7GpppA (setting [4]), 3.

The values are drawn from patent publication US20160032257A1, “AGENT AND METHOD FOR MODIFYING THE 5' CAP OF RNA” (UNIVERSITÄT HAMBURG, priority 2012, published 2016).
